These results are taken from publication PMC10682436.

Data set [1] concerns the target OVOL2 C120Y C120Y (Mus musculus) (UniProt Q8CIV7). In words: EMSA. The conditions noted are these: 1 nM probe; 53 ng or 1.7 ug protein; severely impaired; EMSA: 1 nM 5'-biotin DNA probe, room temperature, 30 min (1 h for Fig. 7E), LightShift Chemiluminescent EMSA Kit; specific competitor 4.5 uM where used …. (In EMSA bound probe runs differently from free probe, usually more slowly.)

The target in a further data set is OVOL2 WT (Mus musculus) (UniProt Q8CIV7). In words: EMSA. The conditions noted are these: 1 nM probe; 53 ng protein; EMSA: 1 nM 5'-biotin DNA probe, room temperature, 30 min (1 h for Fig. 7E), LightShift Chemiluminescent EMSA Kit; specific competitor 4.5 uM where used ….

For the sequence “AACCGTTACC (double strand) [OVOL2 probe]”, in data set [1], the binding signal (relative to WT = 128) stood at 1. In the data set with OVOL2 WT (Mus musculus), the binding signal (fold (WT:C120Y DNA binding ability)) was determined as 128.
